Assays:
[1] = target: T1, ctPan2 Δ353–375 (PID deletion in full-length ctPan2) (Chaetomium thermophilum, UniProt G0SAK8 1-1170, Δ353–375); assay: SEC; separately purified ctPan2 constructs and ctPan3 PKC dimer mixed 1:1 at 1 μM, 15 min at room temperature; Superdex 200 Increase 3.2/300 in 20 mM Tris pH 8.0, 500 mM NaCl, 2 mM TCEP; fractions on SDS–PAGE; conditions: both partners purified
T1 construct: Pan2, Chaetomium thermophilum, full-length context with an internal deletion of residues 353-375
T1 sequence (looked up): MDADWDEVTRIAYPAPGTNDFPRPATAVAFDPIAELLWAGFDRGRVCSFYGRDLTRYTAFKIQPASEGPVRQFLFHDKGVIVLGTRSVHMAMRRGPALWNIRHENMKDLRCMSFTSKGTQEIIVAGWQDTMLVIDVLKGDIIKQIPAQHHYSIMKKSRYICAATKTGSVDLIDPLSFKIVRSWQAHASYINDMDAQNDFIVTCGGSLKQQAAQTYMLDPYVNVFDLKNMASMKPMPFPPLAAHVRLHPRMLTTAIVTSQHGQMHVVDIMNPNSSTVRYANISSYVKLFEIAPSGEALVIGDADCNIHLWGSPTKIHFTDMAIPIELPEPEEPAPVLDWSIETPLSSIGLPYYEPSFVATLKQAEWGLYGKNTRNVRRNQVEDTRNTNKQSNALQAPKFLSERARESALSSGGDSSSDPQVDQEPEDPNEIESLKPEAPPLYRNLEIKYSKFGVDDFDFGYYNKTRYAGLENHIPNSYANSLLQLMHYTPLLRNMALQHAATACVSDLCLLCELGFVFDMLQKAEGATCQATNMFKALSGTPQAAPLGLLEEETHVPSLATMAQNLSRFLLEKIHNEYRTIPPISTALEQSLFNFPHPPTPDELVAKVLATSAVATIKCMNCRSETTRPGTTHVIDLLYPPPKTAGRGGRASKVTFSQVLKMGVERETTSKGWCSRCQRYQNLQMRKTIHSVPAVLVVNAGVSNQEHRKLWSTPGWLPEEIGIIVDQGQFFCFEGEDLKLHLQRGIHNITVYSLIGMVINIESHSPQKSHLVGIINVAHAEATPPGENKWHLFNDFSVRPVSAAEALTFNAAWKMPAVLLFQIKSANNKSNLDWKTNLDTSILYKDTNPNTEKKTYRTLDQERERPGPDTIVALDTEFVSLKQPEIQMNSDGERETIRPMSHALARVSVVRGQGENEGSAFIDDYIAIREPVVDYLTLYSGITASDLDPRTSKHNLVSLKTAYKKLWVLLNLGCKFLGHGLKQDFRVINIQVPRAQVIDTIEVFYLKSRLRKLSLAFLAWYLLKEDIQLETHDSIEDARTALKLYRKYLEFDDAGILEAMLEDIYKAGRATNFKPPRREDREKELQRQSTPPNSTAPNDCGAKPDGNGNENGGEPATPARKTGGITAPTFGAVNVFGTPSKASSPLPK

[2] = target: the molecule itself; assay: crystal structure; ctPan3 PKC bound to ctPan2 343–458, P21 symmetry, two copies of the complex in the asymmetric unit, molecular replacement

binding result [1]: binds
B1: ctPan3 pseudokinase/C-terminal domain (PKC, residues 205–640), purified from E. coli (domain or fragment, Chaetomium thermophilum, UniProt G0S0Y3 205-640, looked up)
chain: RQELQPWQRATYDFFMPQNLREDLQKKQFATLQVIPNSGLPQLEHWHSLVPLDTSNRKNTSCFGYPSWVYKAQNSRNGRHYALRRLEGYRLTNEKAILNVMKDWKKIKNASIVTIHEVFTTREFGDSSLIFAYDFHPLSKTLQEHHFQPIHGNRYRPPPAVPENTIWGYICQIANALKTIHSNRLAARCLEPSKIILTDINRIRLSACAILDVVQFGMNSRSVVELQQEDFVKFGKLILSLATGTLPAHLNNIPAALETLGNKYSANLKSAVNWLLDTSSGETKTIEHFMTGIASQMTTFFDLALQDNDEKLFHLAREVENGRIARSLMKLLTILERGDYDGVPSWSETGDRYQLKLFRDYVFHRVDADGKPNLSIGHMLTCMSKLEAGVDENILLTSRDNETVFVLSYRELRQMYDRAFNELVKASKTGAPGANT
notes: Pan3, Chaetomium thermophilum, pseudokinase (242-497), coiled coil (499-538) and C-terminal domain (555-640), construct residues 205-640; The crystals of ctPan3 PKC alone (PDB 4CYI) were of Se-Met-labelled protein; also called ctPan3 PKC; ctPan3 PKC dimer; source: E. coli, purified (glutathione Sepharose)
binding result [2]: binds

Source: PMC4158885 (The EMBO Journal, 2014)
